# Test: yeast display, Sf9 membrane polyspecificity reagent, FACS + sequencing; frameworks hold sequencing errors
# Summary of the method: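 Synthetic nanobody libraries on Saccharomyces cerevisiae BJ5465 were galactose-induced for 36–48 hours, stained 1 hour at 4 °C with 10% biotinylated, detergent-solubilized Sf9 membrane reagent and enriched on streptavidin microbeads. FACS then separated cells into low and high (top ~1%) gates by anti-HA (expression) and streptavidin (reagent binding) fluorescence. Genes were colony-PCR amplified, MiSeq 2 × 250 sequenced and CDR-length filtered. A clone's polyreactivity label is that of its gate of origin.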
row,Sequence,polyreactivity (PSR sort gate)
1,QVQLVESGGGLVQAGGSLRLSCAASGSTYYIYAMGWYRQAPGKEREMVAAISDNGGTTYYADSVKGRFTISRDNAKNTVYLQMNSLKPEDTAVYYCNAEGWWYWYYGSYDYWGQGTQVTVSS,high polyreactivity
2,QVQLVESGGGLVQAGGSLRLSCAASGSTYYLYAMGWYRQAPGKERELVAVITWSDGSTYYADSVKGRFTISRDNAKNTVYFQMNSLKPEDTAVSYCAKDLDSGGRGYYWGQGTQVTVSS,low polyreactivity
3,QVQLVESGGGLVQAGGSLRLSCAASGSTYYNAMGWYRQAPGKERELVAAIRFRSGSTYYADSVKGRFTISRDNAKNTVYLQMNSLKPEDTAVYYCNKVPYRGYRRYGYWGQGTQVTVSS,high polyreactivity
4,QVQLVESGGGLVQAGGSLRLSCAASGSTYYSNAMGWYRPAPGKERELVAGIDTSDGSTNYADSVKGRFTISRDNAKNTVYLQMNSLKPEDTAVYYCAADYTQPGFVSYDYWGQGTQVTVSS,low polyreactivity
5,QVQLVESGGGLVQAGGSLRLSCAASGTFAGNAMGWYRQAPGKERELVAAITTGGRTYYADSVKGRFTISRDNAKNTVYLQMNSLKPEDTAVYYCAADRIRDLEFDYWGQGTKVTVSS,low polyreactivity
6,QVQLVESGGGLVQAGGSLRLSCAASGTFARYAMGWYRQAPGKERELVAAISRRGGSTYYADSVKGRFTISRDNAKNTVYLQMNSLKPEDTAVYYCAADNTQVRPKYDYWGQGTQVTVSS,high polyreactivity
7,QVQLVESGGGLVQAGGSLRLSCAASGTFFIYAMGWYRHAPGKERELVATISTGGSTNYADSVKGRFTISRDNAKNTVYLQMNSLKQEDTAVYYCAAEWLYPHDGGYPRPMDYWGQGTQVTVSS,low polyreactivity
8,QVQLVESGGGLVQAGGSLRLSCAASGTFFIYAMGWYRQAPGKERELVATISTGGSTNYADSVKGRFTISRDNAKNTVYLQMNSLKPEDTAVYYCAAEWLYPHDGGYPRPMDYWGQGTQVTVSS,low polyreactivity
9,QVQLVESGGGLVQAGGSLRLSCAASGTFKWYAMGWYRQAPGKERELVAVISSSGGTTSYADSVKGRFTITRDNAKNTVYLQMNSLKPEDTAVYYCNRVWSTSMDYWGQGTQVTVSS,high polyreactivity
10,QVQLVESGGGLVQAGGSLRLSCAASGTFPDYAMGWYRQAPGKERELVAAITYRGGSTYYADSVKGRFTISRDNAKNTVYLQMNSLKPEDTAVYYCAADVVNAYKSLLVGDMYYWGQGTQVTVSS,high polyreactivity
11,QVQLVESGGGLVQAGGSLRLSCAASGTFPGNAMGWYRQPPGKERELVATITRGGRTYYADSVKGRVTISRDNANNTVYLQMNSLKPEDTAVYYCNTSVYSGKIRGYDYGGQGTQVTVSS,high polyreactivity
12,QVQLVESGGGLVQAGGSLRLSCAASGTFQRYAMGWYRQAPGKERELVAGISSAGDTNYADSVKGRFTISRDNAKNTVYLQMKSLKPEDTAVYYCNAAYFAGPADDKFDYWGQGTQVTVSS,low polyreactivity
13,QVQLVESGGGLVQAGGSLRLSCAASGTFTVNTMGCYRQAPGKERELVAAISTGDTTTYADSVKGRFTISRDNAKNTVYLQMNSLKPEDTAVYYCNVDIGVYAYESDYWGQGTQVTVSS,low polyreactivity
14,QVQLVESGGGLVQAGGSLRLSCAASGTFTVNTMGWYRQAPGKVRELVAAISTGDTTTYADSVKGRFTISRDNAKNTVYLQMNSLKPEDTAVYYCIVDIGVYAYESDYWGQGTQVTVSS,low polyreactivity
15,QVQLVESGGGLVQAGGSLRLSCAASGTFTVNTMGWYRQAPGKVSELVAAISTGDTTTYADSVKGRFTISRDNAKNTVYFQLNSLKPEDTAVYYCNVDIGVYAYESDYWGQGTQVTVSS,low polyreactivity
16,QVQLVESGGGLVQAGGSLRLSCAASGTFYGKTMGWYRQAPGKERELDAVISIDGSTNYADSVKGRFTISRDNAKKTVYLQMNSLKPEDTAVYYCNARNQWRTVGKYDYWGQGTQVTVSS,low polyreactivity
17,QVQLVESGGGLVQAGGSLRLSCAASGTFYKYAMGWYRQAPGKERELVAAISWRGGRTYADSVKGRFTISRDNANNTVYLQMNSLKPEDTAVYYCAAEYRYDWYTYGYWGQGTQVTVSS,high polyreactivity
18,QVQLVESGGGLVQAGGSLRLSCAASGTFYRNAMGWYRQAPGKERELVAAISSGSNTDYADSVKGRFTISRDNAKNTVYVQMNSLKPEDTALYYCNADRGDLYDLRGSGYLDGYWGQGTQVTVSS,low polyreactivity
19,QVQLVESGGGLVQAGGSLRLSCAASGTIFDVNALGWYRQAPGKERELVAAITSGGGTNYADSVKGRFTISRDNAKNTVYLQMNSLKPEDTAVYYCAADHVYYDYDYWGQGTQVTVSS,low polyreactivity
20,QVQLVESGGGLVQAGGSLRLSCAASGTIFGEYAMGWYRQAPAKERELVADITTGGNTNYADSVKGRFTISRDNAKNTVYLQMNSLTPEATAVYYCAADFFSRDWGQGTQVTVSS,low polyreactivity
21,QVQLVESGGGLVQAGGSLRLSCAASGTIFNRYAMGWYRQAPGKERELVAAITRGGTTYYADSVKGRFTISRDNATNTVYLQMNSLKPEDTAVYYCAARLRYTTVIYYYWGQGTQVTVSS,high polyreactivity

row,Sequence,polyreactivity (PSR sort gate)
1,QVQLVESGGGLVQAGGSLRLSCAASGTIFYDNDMGLYRQAPGKERELVAAISWSASDTYYADSVKGRFTISRDNAKNTVFLQMMSLKPEDTAVYYCNAEVYEWYVVYSALDYWGQVTQVTVSS,low polyreactivity
2,QVQLVESGGGLVQAGGSLRLSCAASGTLSSYAMGWYRQAPGKERELVAAISLSGGSTYADSVKGRFTISRDNAKNTVYLQMNSLKPEDTAVYYCAKDWDVDITWSFSIYNYWGQGTQVTVSS,low polyreactivity
3,QVQLVESGGGLVQAGGSLRLSCAASGTTFGYNAMGWYRQAPGKERELVAAITSGGSTNYADSVKGRFTISRDNAKNTVYLQMNSLKPEDTAVYYCDKRGYYHYYWGQGTQVTVSS,high polyreactivity
4,QVQLVESGGGLVQAGGSLRLSCAASGTTFPKYAMGWYRQAPGKERELVAAITRGGRTYYADSVKGRFTISRDNANNTVYLQMNSLKPEDTAVYYCAVVGYARVGMYDYWGQGSQVTVSS,high polyreactivity
5,QVQLVESGGGLVQAGGSLRLSCAASGTTFTRYAMGWYRQAPGKERELVAAISRTGGSRTYYADSVKGRFTISRDNAKNTVYLHMNSLKPEDTAVYYCAKGYWRYLGFLYFFPARDYWGQGTQVTVSS,high polyreactivity
6,QVQLVESGGGLVQAGGSLRLSCAASGTTFYNYAMGWYRQAPGQERELVAAISKTGGSTYYADSVKGRFTISRDNAKNTVYLQMNSLKPEDTAVYYCNAVALYPYTTYHYWGQGTQVTVSS,high polyreactivity
7,QVQLVESGGGLVQAGGSLRLSCAASGTTYYNAMGWYRQAPGKERELVAAIRFRSGSTYYADSVKGRFTISRDNAKNTVFLQMNSLKPEDTAVYYCNIVPYRGYRRYGYWGQGTHVTVSS,high polyreactivity
8,QVQLVESGGGLVQAGGSLRLSCAASGVIFSLYAMGWYRQAPGKERELVAVITWSDGRTYYADSVKGRFTISRDNAKNTVYLQMNSLKPEDTAVYYCAAADWITEYDYWGQGTHVTVSS,low polyreactivity
9,QVQLVESGGGLVQAGGSLRLSCAASGVIFWEYAMGWYRQAPGKERELVAAISTSGGSTYYADSVKGRFTISRDNAKNTVYLQMISLKPEDTAVYYCAVDGWDDTYFRQDMDYWGQGTQVTVSS,low polyreactivity
10,QVQLVESGGGLVQAGGSLRLSCAASGVIFYDYAMGWYRQAPGKERELVAAISSGGSTNYADSVKGRFTISRDNAKNTVYLQMNSLKPEDTAVYYCAADDRSYATWKRDYDYWGQGTQVTVSS,low polyreactivity
11,QVQLVESGGGLVQAGGSLRLSCAASGVIFYRYAMGWYRQAPGKERELVAAITRSGGTTYYADSVKGRFTISRDNAKNTVYLQMNSLKPEDTAVYYCAARVTPGRNGGGYWGQGTQVTVSS,high polyreactivity
12,QVQLVESGGGLVQAGGSLRLSCAASGVILYFHAMGWYRQAPGKERELVAAITSDGGSTYYADSVKGRFTISRDDAKNTVYLQMNSLKPEDTAVYYCAADASTWYTEEYWGQGTQVTVSS,low polyreactivity
13,QVQLVESGGGLVQAGGSLRLSCAASGVNAMGWYRQAPGKEREIVAAITSIGGSTYYADSVKGRFTISRDNAKNTVSLQMNSLKPEDTAVYYCNTDRGPVKVSPLYESWGQGTQVTVSS,low polyreactivity
14,QVQLVESGGGLVQAGGSLRLSCAASGVTFIYYTMGWYRQAPGKERDLVATISRRGDSPYYADSVKGRFTISRDNAKNTVYLQMNSLKPEDTAVYYCNAVTRAAYWWTARSTDYDYWGQGTLVTVSS,high polyreactivity
15,QVQLVESGGGLVQAGGSLRLSCAASGVTFNYNAMGWYRQAPGKERELVATITGSTYYADSVKGRFTISRDNAKNTVYLQMNSLKPEDTAVYYCTADASLVLAEYDYWGQGTQVTVSS,low polyreactivity
16,QVQLVESGGGLVQAGGSLRLSCAASGVTFSLNTMGWYRQSPGKERELVAAINSGDSTYADSVKGRFTISRDNAKNTVYVQMNSLKPEDTAVYYCTADPDWWYPYNYWGQGTQVTVSS,low polyreactivity
17,QVQLVESGGGLVQAGGSLRLSCAASGYICVRYAMGWYRQAPGKEREFVAAISSSGGSTRYADSVKGRFTISRDNAKNTVYLQMNSLKPEDTAVYYCAATRVARHGSPMYYWGQGTQVTVSS,high polyreactivity
18,QVQLVESGGGLVQAGGSLRLSCAASGYIFAYNTMGWYRQAPGKERELVAAISRSGGSTYYADSVKGRFTISRDNAKNTVYLQMNSLKPEDTAVYYCAARYAPLDFRFDYWGQGTQVTVSS,high polyreactivity
19,QVQLVESGGGLVQAGGSLRLSCAASGYIFDIYDMGWYRQATGKERELVAAITDYADSVKGRFTISRDNAKNTVYLQMNSLKPEDTAVYYCNVKFLVQPVTSVIGDYWGQGTQVTVSS,low polyreactivity
20,QVQLVESGGGLVQAGGSLRLSCAASGYIFDRYAMGWYRQAPGKERELVATITRRGGSTYYADSVKGRFTISRDNAKNTVYLQMNSLKPEDSAVYYCAKRSPGTYIAMGYWGQGTQVTVSS,high polyreactivity

# Source: the nanobody polyreactivity screen of Harvey et al. (2022)
